Measured values reported in the supplement of paper PMC9170038.

Tested on: MS2 coat protein
Assay: apparent KD of MS2 coat protein; designed switch direction (-1 OFF switch, 1 ON switch): -1; higher = weaker reporter binding
In short: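 Designed RNA switches sharing common flanks were transcribed on Illumina chips by stalled E. coli RNA polymerase. They were titrated with SNAP-549-labelled MS2 coat protein, from 0.7 or 1.5 nM doubling to 3 µM, in Tris-HCl pH 7.5 buffer with KCl, MgCl2, BSA, DTT, tRNA and Tween-20. Titrations ran without input, with 200 uM small-molecule ligand, or with an oligonucleotide input. The apparent KD of each design is the median over its clusters, after curve-fitting of normalised cluster fluorescence.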

[1] = Eterna round: R95, input ligand: microRNA oligo, concentration not stated
[2] = input ligand: microRNA oligo, concentration not stated

Sequence	apparent KD of MS2 coat protein [1] [nM]	apparent KD of MS2 coat protein (input ligand: FMN 200 uM) [nM]	apparent KD of MS2 coat protein [2] [nM]	apparent KD of MS2 coat protein (input ligand: none) [nM]	apparent KD of MS2 coat protein (Eterna round: R95, input ligand: FMN 200 uM) [nM]	apparent KD of MS2 coat protein (Eterna round: R95, input ligand: none) [nM]
CUCUUGUGAGGAUAUCAGGUGUGCUAGCGUACUGGUACAUCUGAGAAGGCACAUGAGGAUCACCCAUGUUUCUA [Mat - Exclusion 4 - Mod of JL - D40] (puzzle: Exclusion 4)	93.8	–	–	–	–	–
ACAUGAGGAUCACCCAUGUGAACGAAAAGGCUCAUGUAGAGUGAGGAUAUGUGAGACGAACGAGAACAGAAGGCACAAGACAGG [Deportation 1 - Jieux - Exclusion NG 3] (Eterna round: R96, puzzle: Exclusion NG 3)	–	20.7	19.5	35.4	–	–
UAUUAGCAAGUGAGAUCCCACAUGAGGAUCACCCAUGUGCUCGUCUUAUAACGUACUGUGAGGAAACUCACGGUACG [Sensor-V1 #83] (Eterna round: R97, puzzle: Sensor, turn-off variant 1)	–	47.6	–	51.2	–	–
GCUAGGAGUGUGAGGAUAUGCUGAUCCUUGGAUCAGCAGAAGGCACAUGAGGAUCACCCAUGUGAAGACCUAGC [Mat - Exclusion 4 - JL Mod - D2] (Eterna round: R97, puzzle: Brourd's mod of Exclusion 4)	–	169	–	30	–	–
GAUGUCCAGCGAGGAUAUCUGGUAAAUAAAAUGAGAGAAGGCGCGAAGACAUGAGGAUCACCCAUGUUGUCGCAUGGGAGCCUG [Enqurete] (Eterna round: R96, puzzle: Exclusion NG 1)	–	116	22.9	29.1	–	–
UGAUCUUUUGUUAGGAUAUGCUGUUUUUUUUUUCAGCAGAAGGGACAUGAGGAUCACCCAUGUUUUGUCAUAAA [Magic-06] (Eterna round: R96, puzzle: Brourd's mod of Exclusion 4)	–	45	24.1	33	–	–
GUCAGCUCGUGAGGAUAUGAACAUGAGGAUCACCCAUGUAAGAUCAAGCUGCUUCGGCAGCAAGUUCAGAAGGUACGAGCUGAC [ENG2/10-C1] (Eterna round: R96, puzzle: Exclusion NG 2)	–	150	77.5	130	–	–
CCCAUGUCAGGAUAUUAGAUACUGCCUCAAAACAAAGGCAUUGAGAAGGGACAUGAGGAUCACCCAUGUAAAAC [Leissobima] (Eterna round: R97, puzzle: Exclusion 4)	–	59.5	–	183	–	–
UGUUGUCGCGUAGGAUAUGGCCAACAGGCCCUAGGAUAUGGGAAACCAGAAGGAGCGCCAACAGGCGAGAAGGACGGGACAACU [pwkr exNG2 2xF7 2xFMN.19] (Eterna round: R96, puzzle: Exclusion NG 2)	–	734	451	268	–	–
CACCGUAACAGAGGAUAUCAAACAUGAGGAUCACCCAUGUAAUAAAUGAGAAUUUCGAAUGUACCUGAGAAGGCUGAAACCGGC [Ostricism 83 - Jieux - Exclusion NG 2] (Eterna round: R96, puzzle: Exclusion NG 2)	–	–	25.9	–	–	–
GUGGCACAUGAGGAUCACCCAUGUCAGGAUAUCGCGUGUUUUUUUUCGGCCGCGCGCGCGAGAAGGGACGUCUU (puzzle: Exclusion 1)	22.8	–	–	–	–	–
ACGUACUGAGGAUAUACGAACAUGUCAAAAGACGUGAAGGGACAUGAGGAUCACCCAUGUAGAAGGCAGUACGA [Mat - Exclusion 2 - JL mod - D7] (Eterna round: R96, puzzle: Exclusion 2)	–	–	32.7	–	–	–
GAUUUGUAAGGAUAUCGUGCAAGUUUCAAAAGAGGCUUGUGCGAGAAGGUACAUGAGGAUCACCCAUGUAGGUU [Omei Ex4 B13] (Eterna round: R97, puzzle: Exclusion 4)	–	42.6	–	24.1	–	–
CAGCCUCUUGUGAGGAUAUUCUGCUAAGCGAGGCGGAAGAAGGUACAUGAGGAUCACCCAUGUUGGCGGAAUAA [Eternabot (Original) Solution 21] (Eterna round: R97, puzzle: Brourd's mod of Exclusion 4)	–	167	–	37.6	–	–
CUUUUGUGAGGAUAUUAGUAGUAAAUAAAUAAAAUUACUACUGAGAAGGCACAUGAGGAUCACCCAUGUUCCUC [Salish 062 v16] (Eterna round: R97, puzzle: Exclusion 4)	–	358	–	42.9	–	–
UAUUAGUAAGGAUAUGAGCCGUAGGACGAAAGUCCUACGGCUCAGAAGGUACAUGAGGAUCACCCAUGUUCAUU [Mod of Fisker 5 - Jieux - Exclusion 4] (Eterna round: R97, puzzle: Exclusion 4)	–	17.7	–	15.9	–	–
GGUUGGCGAGGAUAUACAUGAGGAUCACCCAUGUGAGAGAAAGAAGUGAGAACGAAAAGUAGAAGGCGCUGACG [salish99_ex3_r3_058] (puzzle: Exclusion 3)	65.8	–	–	–	48.1	66.1
